Experimental findings from patent publication US6077682 are described below.

In this experiment the target is EnvZ(C)(223-289) (Escherichia coli).

Turning to EnvZ(C)(290-450) (enzyme), the trans-autophosphorylation of sub-domain A with [gamma-32P]ATP, autoradiography came to 5%.
